Measurements as given in the supplement of paper PMC10065799, “High-throughput profiling of sequence recognition by tyrosine kinases and SH2 domains using bacterial peptide display” (eLife, 2023).

What was measured:
Hck = Hck (UniProt P08631); assay: phosphorylation enrichment, bacterial display (enrichment ratio); higher = better substrate or ligand; peptides without Tyr show the background
FGFR1 = FGFR1 (UniProt P11362); assay: as above
Fer (mouse) = assay: as above
FGFR3 = FGFR3 (UniProt P22607); assay: as above
Fyn = Fyn (UniProt P06241); assay: as above
Sequence of Fyn (P06241 whole entry, looked up): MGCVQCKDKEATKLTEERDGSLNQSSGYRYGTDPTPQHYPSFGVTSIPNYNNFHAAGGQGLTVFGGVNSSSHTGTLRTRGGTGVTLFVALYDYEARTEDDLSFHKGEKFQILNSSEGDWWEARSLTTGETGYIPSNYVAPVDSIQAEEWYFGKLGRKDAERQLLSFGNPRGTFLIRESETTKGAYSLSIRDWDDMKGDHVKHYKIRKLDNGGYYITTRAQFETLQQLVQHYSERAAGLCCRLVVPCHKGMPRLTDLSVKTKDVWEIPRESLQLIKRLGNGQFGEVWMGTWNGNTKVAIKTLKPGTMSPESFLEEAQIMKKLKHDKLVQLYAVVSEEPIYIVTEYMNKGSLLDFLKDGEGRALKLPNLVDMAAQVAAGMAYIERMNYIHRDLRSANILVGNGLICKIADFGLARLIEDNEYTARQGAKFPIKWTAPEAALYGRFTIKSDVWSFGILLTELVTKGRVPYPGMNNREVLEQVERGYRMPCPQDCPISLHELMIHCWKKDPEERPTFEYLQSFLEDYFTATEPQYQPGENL

Fes = Fes (UniProt P07332); assay: as above
Sequence of Fes (P07332 whole entry, looked up): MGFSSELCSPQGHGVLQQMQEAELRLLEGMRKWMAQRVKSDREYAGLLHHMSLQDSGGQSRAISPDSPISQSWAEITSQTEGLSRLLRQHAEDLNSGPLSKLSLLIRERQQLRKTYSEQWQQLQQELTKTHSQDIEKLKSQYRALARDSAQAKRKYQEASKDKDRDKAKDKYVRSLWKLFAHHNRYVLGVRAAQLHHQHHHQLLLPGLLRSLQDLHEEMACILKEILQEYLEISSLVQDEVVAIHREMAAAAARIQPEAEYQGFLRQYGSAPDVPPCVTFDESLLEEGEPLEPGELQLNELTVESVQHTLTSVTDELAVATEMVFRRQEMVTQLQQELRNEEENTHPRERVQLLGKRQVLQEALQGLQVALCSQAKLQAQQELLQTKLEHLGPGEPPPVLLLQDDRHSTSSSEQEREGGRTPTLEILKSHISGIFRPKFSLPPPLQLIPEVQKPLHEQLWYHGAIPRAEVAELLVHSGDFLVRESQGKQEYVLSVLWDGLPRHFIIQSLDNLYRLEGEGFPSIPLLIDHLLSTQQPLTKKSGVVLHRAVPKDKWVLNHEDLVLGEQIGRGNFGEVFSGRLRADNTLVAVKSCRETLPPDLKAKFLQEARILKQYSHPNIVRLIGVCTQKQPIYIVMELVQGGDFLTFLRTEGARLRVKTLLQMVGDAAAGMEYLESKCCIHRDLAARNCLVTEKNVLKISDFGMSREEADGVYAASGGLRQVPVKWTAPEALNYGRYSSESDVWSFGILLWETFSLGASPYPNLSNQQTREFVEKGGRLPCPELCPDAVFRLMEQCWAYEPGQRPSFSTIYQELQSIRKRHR

AncSZ = assay: as above
c-Abl (mouse) = assay: as above
EPHB1 = EPHB1 (UniProt P54762); assay: as above
Sequence of EPHB1 (P54762 whole entry, looked up): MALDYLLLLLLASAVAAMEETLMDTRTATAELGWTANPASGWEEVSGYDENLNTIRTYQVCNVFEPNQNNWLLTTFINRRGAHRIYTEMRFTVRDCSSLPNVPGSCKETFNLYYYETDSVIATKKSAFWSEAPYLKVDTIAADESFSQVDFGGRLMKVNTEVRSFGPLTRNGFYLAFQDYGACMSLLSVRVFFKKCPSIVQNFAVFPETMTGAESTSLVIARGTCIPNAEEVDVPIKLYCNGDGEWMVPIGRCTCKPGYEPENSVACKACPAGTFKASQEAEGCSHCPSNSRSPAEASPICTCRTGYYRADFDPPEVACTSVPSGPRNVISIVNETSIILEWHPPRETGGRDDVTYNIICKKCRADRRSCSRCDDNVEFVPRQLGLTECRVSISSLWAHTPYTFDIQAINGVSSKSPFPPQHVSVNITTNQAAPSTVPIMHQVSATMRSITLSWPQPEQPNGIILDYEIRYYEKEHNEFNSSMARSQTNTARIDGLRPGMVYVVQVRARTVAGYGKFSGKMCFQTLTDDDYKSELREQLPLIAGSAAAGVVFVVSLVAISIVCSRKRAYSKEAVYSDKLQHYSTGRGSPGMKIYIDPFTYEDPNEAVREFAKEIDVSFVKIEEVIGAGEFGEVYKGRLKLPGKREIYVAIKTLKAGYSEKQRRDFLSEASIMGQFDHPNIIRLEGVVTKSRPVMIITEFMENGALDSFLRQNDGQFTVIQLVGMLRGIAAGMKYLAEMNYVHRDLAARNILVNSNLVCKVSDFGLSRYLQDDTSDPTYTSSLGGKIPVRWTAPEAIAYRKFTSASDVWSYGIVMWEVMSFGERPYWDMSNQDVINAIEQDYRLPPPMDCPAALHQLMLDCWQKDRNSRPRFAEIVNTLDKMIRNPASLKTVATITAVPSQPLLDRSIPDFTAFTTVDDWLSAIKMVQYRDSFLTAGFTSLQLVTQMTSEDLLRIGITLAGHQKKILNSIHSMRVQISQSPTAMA

MERTK = MERTK (UniProt Q12866); assay: as above
Sequence of MERTK (Q12866 whole entry, looked up): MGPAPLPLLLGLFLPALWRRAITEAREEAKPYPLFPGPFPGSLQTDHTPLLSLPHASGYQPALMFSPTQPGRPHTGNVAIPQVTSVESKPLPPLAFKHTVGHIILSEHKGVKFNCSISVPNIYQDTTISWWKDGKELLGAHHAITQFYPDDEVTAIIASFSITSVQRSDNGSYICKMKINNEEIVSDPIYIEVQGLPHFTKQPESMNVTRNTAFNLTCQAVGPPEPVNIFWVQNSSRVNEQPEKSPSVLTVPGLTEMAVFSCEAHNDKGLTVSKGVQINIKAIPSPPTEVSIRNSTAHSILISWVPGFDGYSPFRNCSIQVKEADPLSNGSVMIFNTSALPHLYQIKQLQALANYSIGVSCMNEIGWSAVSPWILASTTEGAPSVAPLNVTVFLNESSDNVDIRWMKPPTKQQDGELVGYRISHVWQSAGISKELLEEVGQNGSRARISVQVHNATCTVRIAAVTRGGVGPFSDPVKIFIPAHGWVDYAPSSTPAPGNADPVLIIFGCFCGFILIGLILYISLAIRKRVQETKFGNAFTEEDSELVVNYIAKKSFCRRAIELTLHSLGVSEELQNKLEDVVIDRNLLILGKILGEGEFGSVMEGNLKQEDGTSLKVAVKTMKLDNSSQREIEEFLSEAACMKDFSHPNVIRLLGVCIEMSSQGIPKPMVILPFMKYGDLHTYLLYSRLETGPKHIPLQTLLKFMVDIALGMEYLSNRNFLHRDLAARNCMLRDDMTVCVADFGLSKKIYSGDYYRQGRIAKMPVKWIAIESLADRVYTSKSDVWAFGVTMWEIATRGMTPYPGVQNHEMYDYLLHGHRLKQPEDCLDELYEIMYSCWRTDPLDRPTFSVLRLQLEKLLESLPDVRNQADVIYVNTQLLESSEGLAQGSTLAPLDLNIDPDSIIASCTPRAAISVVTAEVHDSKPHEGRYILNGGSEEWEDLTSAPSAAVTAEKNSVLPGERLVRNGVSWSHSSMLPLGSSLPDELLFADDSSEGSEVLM

Jak2 = Jak2 (UniProt O60674); assay: as above
EPHB2 = EPHB2 (UniProt P29323); assay: as above
Sequence of EPHB2 (P29323 whole entry, looked up): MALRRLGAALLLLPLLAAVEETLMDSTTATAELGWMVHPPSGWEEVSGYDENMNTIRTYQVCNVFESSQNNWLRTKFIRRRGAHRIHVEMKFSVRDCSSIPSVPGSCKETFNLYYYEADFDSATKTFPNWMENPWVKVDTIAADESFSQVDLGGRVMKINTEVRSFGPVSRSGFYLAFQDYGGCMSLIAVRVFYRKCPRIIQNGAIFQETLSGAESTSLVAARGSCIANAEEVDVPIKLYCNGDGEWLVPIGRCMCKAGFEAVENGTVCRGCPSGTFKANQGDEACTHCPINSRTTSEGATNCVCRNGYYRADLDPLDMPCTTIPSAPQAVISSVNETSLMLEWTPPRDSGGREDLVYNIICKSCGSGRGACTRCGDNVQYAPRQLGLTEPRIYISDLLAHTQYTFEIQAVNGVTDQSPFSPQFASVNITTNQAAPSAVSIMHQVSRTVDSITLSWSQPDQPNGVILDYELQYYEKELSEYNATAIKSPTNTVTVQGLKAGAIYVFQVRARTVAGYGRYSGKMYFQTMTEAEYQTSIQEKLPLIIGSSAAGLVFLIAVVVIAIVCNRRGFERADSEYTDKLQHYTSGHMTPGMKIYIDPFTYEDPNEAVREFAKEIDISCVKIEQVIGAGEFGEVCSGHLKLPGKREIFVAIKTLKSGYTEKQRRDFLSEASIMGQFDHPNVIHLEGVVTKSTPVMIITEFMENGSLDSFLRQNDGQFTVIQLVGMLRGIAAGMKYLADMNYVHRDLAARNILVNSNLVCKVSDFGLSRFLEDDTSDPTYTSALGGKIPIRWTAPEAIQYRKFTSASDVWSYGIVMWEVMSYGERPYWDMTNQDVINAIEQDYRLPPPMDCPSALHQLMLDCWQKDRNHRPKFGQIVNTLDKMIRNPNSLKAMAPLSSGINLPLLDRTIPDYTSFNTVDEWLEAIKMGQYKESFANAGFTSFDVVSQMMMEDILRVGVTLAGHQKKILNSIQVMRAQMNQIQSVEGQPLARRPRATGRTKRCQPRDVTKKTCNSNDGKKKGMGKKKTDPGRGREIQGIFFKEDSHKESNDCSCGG

c-Src = assay: as above
Grb2 SH2 = Grb2 SH2 (UniProt P62993); assay: SH2 binding enrichment of the phosphorylated peptide, bacterial display (enrichment ratio); higher = better substrate or ligand; peptides without Tyr show the background
SHP2-C SH2 = assay: as above
c-Src SH2 = assay: as above
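For SH2 binding enrichment of the phosphorylated peptide, bacterial display in this document: peptide library displayed on the E. coli surface as eCPX fusions, selected cells deep-sequenced, score is each peptide's frequency after selection divided by its frequency in the input.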
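For phosphorylation enrichment, bacterial display in this document: 11-residue human phosphosite peptides and single-mutation variants displayed on the E. coli surface, counted by deep sequencing, each peptide's frequency after selection divided by its frequency in the unselected input library; frequency after pTyr selection over input frequency; kinase dosed for 20-30% of maximal phosphorylation in three min.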

Sequence of Hck (P08631 whole entry, looked up): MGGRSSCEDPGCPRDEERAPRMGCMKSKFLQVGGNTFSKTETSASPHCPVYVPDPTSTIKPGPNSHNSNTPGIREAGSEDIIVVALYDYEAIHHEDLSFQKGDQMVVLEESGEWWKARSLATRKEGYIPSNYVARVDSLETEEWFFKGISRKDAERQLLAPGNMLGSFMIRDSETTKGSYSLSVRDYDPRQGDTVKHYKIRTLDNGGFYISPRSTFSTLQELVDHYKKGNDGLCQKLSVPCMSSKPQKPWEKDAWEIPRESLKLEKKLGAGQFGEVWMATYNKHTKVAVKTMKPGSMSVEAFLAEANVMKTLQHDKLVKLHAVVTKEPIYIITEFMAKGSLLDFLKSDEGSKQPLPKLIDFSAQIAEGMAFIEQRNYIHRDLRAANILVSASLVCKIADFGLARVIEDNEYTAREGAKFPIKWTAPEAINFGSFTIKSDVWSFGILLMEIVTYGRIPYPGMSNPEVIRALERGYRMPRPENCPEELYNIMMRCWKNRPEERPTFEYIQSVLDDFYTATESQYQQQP

Row | SH2 binding enrichment (Grb2 SH2) | SH2 binding enrichment (SHP2-C SH2) | SH2 binding enrichment (c-Src SH2) | Sequence | phosphorylation enrichment (Hck) | phosphorylation enrichment (FGFR1) | phosphorylation enrichment (Fer (mouse)) | phosphorylation enrichment (FGFR3) | phosphorylation enrichment (Fyn) | phosphorylation enrichment (Fes) | phosphorylation enrichment (AncSZ) | phosphorylation enrichment (c-Abl (mouse)) | phosphorylation enrichment (EPHB1) | phosphorylation enrichment (MERTK) | phosphorylation enrichment (Jak2) | phosphorylation enrichment (EPHB2) | phosphorylation enrichment (c-Src)
1 | 0.825 | 1.11 | 0.506 | DHAGEYGAEAL [HBA1_Y25_A20D] | 0.495 | 0.509 | 0.403 | 0.621 | 0.427 | 0.892 | 0.86 | 0.546 | 0.426 | 0.343 | 0.675 | 0.569 | 0.405
2 | 0.712 | 0.501 | 0.33 | RRGMPYGGLGD [TGM1_Y312_R315L] | 0.391 | 0.445 | 0.456 | 0.443 | 0.503 | 0.663 | 0.618 | 0.66 | 0.302 | 1.02 | 0.352 | 0.536 | 0.398
3 | 0.817 | 0.64 | 0.415 | LGSWTYTKTVS [ROS1_Y144] | 1.05 | 1.19 | 0.8 | 1.44 | 0.86 | 2.38 | 1.94 | 0.965 | 2.19 | 0.519 | 1.61 | 1.04 | 0.774
4 | 0.849 | 0.924 | 0.504 | TDTAAYEERLR [SPTB_Y474_V478L] | 0.516 | 0.668 | 0.458 | 0.71 | 0.67 | 0.914 | 0.936 | 0.48 | 0.49 | 0.482 | 0.742 | 0.648 | 0.478
5 | 1.01 | 0.992 | 0.749 | LTSKPYAFTAW [NDUFS1_Y236_R241W] | 0.353 | 0.413 | 0.448 | 0.511 | 0.371 | 0.717 | 0.575 | 0.503 | 0.421 | 1.12 | 0.682 | 0.544 | 0.4
6 | 0.797 | 0.552 | 0.611 | TGYRPYVCPFD [YY1_Y383_D380Y] | 0.525 | 0.621 | 0.574 | 0.951 | 0.583 | 1.33 | 1.16 | 0.808 | 0.753 | 0.551 | 1.04 | 0.706 | 0.412
7 | 1.03 | 0.738 | 0.654 | LGPSDYFGEIV [PRKAR1A_Y323_A328V] | 0.577 | 1.49 | 0.586 | 1.42 | 0.655 | 0.913 | 1.41 | 0.746 | 0.717 | 0.529 | 1.06 | 0.722 | 0.781
8 | 0.552 | 0.334 | 0.489 | RQGQAYRGQRV [TSHR_Y706_A703G] | 0.47 | 0.452 | 0.649 | 0.447 | 0.509 | 0.805 | 0.718 | 0.458 | 0.338 | 0.454 | 0.48 | 0.339 | 0.453
9 | 0.991 | 0.752 | 0.823 | YGTAQYCCRMG [LRRK2_Y2023_I2020T] | 1.2 | 0.498 | 0.603 | 0.603 | 1.01 | 0.613 | 0.719 | 3.23 | 0.714 | 2.78 | 0.506 | 9.81 | 0.757
10 | 0.686 | 0.609 | 0.441 | KKRSSYGNSSD [SELENOK_Y52_R50S] | 0.475 | 0.386 | 0.422 | 0.476 | 0.438 | 0.508 | 0.57 | 0.489 | 0.4 | 0.556 | 0.523 | 0.462 | 0.515
11 | 0.903 | 0.796 | 0.643 | WNDLDYVDSRR [GAA_Y407_M408V] | 0.521 | 0.567 | 0.45 | 0.67 | 0.373 | 0.94 | 1.44 | 0.53 | 0.515 | 0.357 | 0.89 | 0.869 | 0.478
12 | 0.774 | 0.626 | 4.76 | IKAGAYDFPSL [CAMK2A_Y230_P235L] | 0.382 | 0.41 | 1.03 | 0.484 | 0.877 | 0.647 | 0.761 | 0.541 | 0.418 | 5.66 | 0.603 | 0.493 | 0.388
13 | 0.706 | 0.553 | 0.45 | GEVLVYVEDPA [FLNA_Y319] | 0.589 | 0.694 | 0.85 | 0.81 | 0.529 | 1.41 | 1.33 | 0.917 | 0.798 | 0.478 | 1.34 | 0.728 | 0.636
14 | 0.679 | 0.73 | 0.52 | REQREYLEQLN [CCDC88B_Y1277_D1279E] | 0.706 | 0.611 | 0.523 | 0.755 | 0.531 | 0.939 | 1.18 | 0.786 | 0.54 | 0.58 | 1.15 | 0.559 | 0.529
15 | 0.64 | 0.53 | 0.502 | KRISCYEASFQ [PFKFB3_Y194_YF] | 0.49 | 0.523 | 0.593 | 0.85 | 0.452 | 1.11 | 0.973 | 0.88 | 0.58 | 0.527 | 1.06 | 0.536 | 0.568
16 | 0.718 | 0.695 | 0.456 | FKGIVYSVSSD [DCX_Y70_A71S] | 0.547 | 0.548 | 0.399 | 0.666 | 0.666 | 1.11 | 1.09 | 0.887 | 0.535 | 0.488 | 0.959 | 0.668 | 0.722
17 | 1.01 | 1.12 | 1.64 | YCRIMYDIFPF [INTS13_Y67] | 3.78 | 3.47 | 2.06 | 2.89 | 2.55 | 1.48 | 1.85 | 1.7 | 6.02 | 4.92 | 1.51 | 5.07 | 2.98

Row | SH2 binding enrichment (Grb2 SH2) | SH2 binding enrichment (SHP2-C SH2) | SH2 binding enrichment (c-Src SH2) | Sequence | phosphorylation enrichment (Hck) | phosphorylation enrichment (FGFR1) | phosphorylation enrichment (Fer (mouse)) | phosphorylation enrichment (FGFR3) | phosphorylation enrichment (Fyn) | phosphorylation enrichment (Fes) | phosphorylation enrichment (AncSZ) | phosphorylation enrichment (c-Abl (mouse)) | phosphorylation enrichment (EPHB1) | phosphorylation enrichment (MERTK) | phosphorylation enrichment (Jak2) | phosphorylation enrichment (EPHB2) | phosphorylation enrichment (c-Src)
18 | 1.43 | 1.23 | 1.7 | RWHEGYRQTPR [CD44_Y412_K417R] | 0.345 | 0.433 | 0.613 | 0.663 | 0.299 | 0.851 | 0.645 | 0.65 | 0.461 | 0.539 | 0.539 | 0.383 | 0.35
19 | 0.443 | 0.721 | 0.293 | RFVTRHIFNRE [HLA-DQB1_Y62_Y62H_YF] | 0.431 | 0.584 | 0.43 | 0.658 | 0.651 | 1.12 | 0.843 | 0.719 | 0.482 | 0.583 | 0.766 | 0.314 | 0.62
20 | 0.803 | 0.723 | 0.539 | SGPRRYTIATL [TTR_Y125_A129T] | 0.372 | 0.432 | 0.361 | 0.398 | 0.377 | 0.44 | 0.472 | 0.39 | 1.36 | 0.425 | 1.03 | 0.344 | 0.375
21 | 0.835 | 0.728 | 0.787 | LFIDSYEKDVA [PGM1_Y521_YF] | 0.816 | 0.855 | 0.767 | 1.48 | 1.41 | 2.05 | 2.09 | 1.36 | 1.34 | 0.848 | 1.22 | 0.755 | 0.694
22 | 1.01 | 0.644 | 1.04 | KGEDFYCVTCP [FHL1_Y149_H154P] | 2.96 | 1.15 | 2.65 | 1.04 | 4.22 | 1.01 | 1.47 | 0.646 | 0.586 | 6.08 | 1.33 | 0.589 | 3.64
23 | 1.03 | 0.7 | 0.59 | ELELLYLDRNS [NYX_Y284] | 0.551 | 0.493 | 0.408 | 0.634 | 0.494 | 0.904 | 0.934 | 0.573 | 0.518 | 0.347 | 0.761 | 0.519 | 0.515
24 | 0.957 | 1.23 | 0.651 | SWDKRYCEAGC [ITGA2B_Y197_F202C] | 0.417 | 0.507 | 0.383 | 0.541 | 0.454 | 0.887 | 0.859 | 0.984 | 0.446 | 0.401 | 0.641 | 0.41 | 0.357
25 | 1.16 | 1.16 | 0.627 | VTAALYGRLFE [BTD_Y536_YF] | 5.74 | 0.439 | 0.436 | 0.527 | 6.32 | 0.734 | 0.748 | 0.626 | 0.535 | 1.08 | 0.633 | 0.656 | 4.97
26 | 1.24 | 1.91 | 1.11 | KLKEKYQKDIA [HMGB1_Y155_E156Q] | 0.487 | 0.565 | 0.522 | 1.21 | 0.465 | 0.996 | 0.57 | 1.24 | 0.454 | 0.557 | 1.47 | 0.588 | 0.582
27 | 1.7 | 1.4 | 1.43 | KACKHYLTTRT [ZBTB5_Y118] | 0.501 | 0.448 | 0.534 | 0.64 | 0.505 | 0.964 | 0.712 | 0.859 | 0.46 | 0.563 | 0.978 | 0.507 | 0.659
28 | 0.763 | 0.617 | 2.13 | RELGEYPLAEF [ALDH1A3_Y492_A493P_YF] | 0.536 | 0.709 | 0.484 | 0.742 | 0.636 | 1.14 | 1.18 | 0.753 | 0.511 | 0.614 | 1.41 | 0.645 | 0.582
29 | 0.706 | 0.405 | 0.463 | RSRSPYSPVFR [CDK13_Y399_L403F] | 0.736 | 0.459 | 0.403 | 0.462 | 0.6 | 0.77 | 0.812 | 0.58 | 0.546 | 0.655 | 0.737 | 0.452 | 0.576
30 | 0.831 | 0.749 | 0.43 | AKYLGYPPPEI [KDR_Y357] | 0.512 | 0.395 | 0.398 | 0.556 | 0.321 | 0.849 | 0.543 | 0.538 | 0.374 | 0.378 | 0.594 | 0.535 | 0.385
31 | 0.81 | 0.787 | 1.11 | SVVVPYEPAEV [TP53_Y220_P223A] | 0.498 | 0.566 | 0.596 | 0.719 | 0.433 | 1.18 | 1.09 | 0.708 | 0.704 | 0.488 | 1.1 | 0.689 | 0.539
32 | 1.09 | 1.17 | 1 | QLHREYCLSPR [HJURP_Y445] | 0.889 | 0.898 | 0.765 | 0.733 | 0.92 | 1.12 | 1.38 | 1.13 | 0.784 | 0.887 | 0.877 | 0.786 | 1.34
33 | 0.781 | 0.903 | 36.4 | SAQHHYESLQT [BIN1_Y157_R154Q] | 0.513 | 0.47 | 0.703 | 0.442 | 0.418 | 0.622 | 0.763 | 0.601 | 0.463 | 0.504 | 0.484 | 0.402 | 0.433
